According to the Immune Epitope Database (IEDB):

Legend:
HLA-A*24:02 [1] = assay: IEDB peptide-MHC binding, purified MHC/competitive/fluorescence; ≥ and ≤ were set here for values at or beyond the usual limits of such assays
HLA-B*44:03 = assay: IEDB peptide-MHC binding, purified MHC/competitive/radioactivity; filed as Kd, often an IC50 or EC50 that approximates it; ≥ and ≤ were set here for values at or beyond the usual limits of such assays; settings: source organism: Dengue virus 2 Jamaica/1409/1983
HLA-B*44:02 = assay: as above; settings: source organism: Dengue virus 2 Jamaica/1409/1983
HLA-A*29:02 = assay: as above
HLA-A*30:02 = assay: as above
HLA-A*24:02 [2] = assay: as above
HLA-A*01:01 = assay: as above
HLA-A*23:01 = assay: as above
HLA-A*26:01 [3] = assay: as above
HLA-A*33:01 = assay: as above; settings: source organism: Vaccinia virus WR
HLA-A*31:01 = assay: as above; settings: source organism: Vaccinia virus WR
HLA-A*11:01 = assay: as above; settings: source organism: Vaccinia virus WR
HLA-A*68:01 = assay: as above; settings: source organism: Vaccinia virus WR
HLA-A*03:01 = assay: as above; settings: source organism: Vaccinia virus WR
HLA-B*15:01 = assay: as above
HLA-A*26:01 [4] = assay: IEDB peptide-MHC binding, purified MHC/direct/fluorescence; filed as Kd, often an IC50 or EC50 that approximates it; ≥ and ≤ were set here for values at or beyond the usual limits of such assays
HLA-A*02:01 = assay: IEDB peptide-MHC binding, purified MHC/competitive/fluorescence; ≥ and ≤ were set here for values at or beyond the usual limits of such assays; settings: source organism: Sudan ebolavirus
HLA-B*40:01 = assay: IEDB peptide-MHC binding, purified MHC/competitive/radioactivity; filed as Kd, often an IC50 or EC50 that approximates it; ≥ and ≤ were set here for values at or beyond the usual limits of such assays
[5] = source organism: Sudan ebolavirus
[6] = source organism: SARS coronavirus Tor2
[7] = source organism: Mammarenavirus whitewaterense
[8] = source organism: Dengue virus 1 Brazil/97-11/1997
[9] = source organism: Vaccinia virus WR
[10] = source organism: Zaire ebolavirus
[11] = source organism: Dengue virus 2 Jamaica/1409/1983
[12] = source organism: Mammarenavirus juninense
[13] = source organism: Dengue virus 4 Philippines/H241/1956
[14] = source organism: Mammarenavirus brazilense
[15] = source organism: Mammarenavirus lassaense

## AEGVIAFLI
HLA-A*24:02 [1]; [5]
  IC50: 440 nM

## AEMEEALRG
HLA-B*44:03
  Kd: 13.2 nM
HLA-B*44:02
  Kd: 4.65 nM

## DSFKEELDKY
HLA-A*29:02; [6]
  Kd: 399 nM
HLA-A*30:02; [6]
  Kd: 299 nM
HLA-A*24:02 [2]; [6]
  Kd: ≥ 70300 nM
HLA-A*01:01; [6]
  Kd: 754 nM
HLA-A*23:01; [6]
  Kd: ≥ 70000 nM
HLA-A*26:01 [3]; [6]
  Kd: 416 nM

## DYRHYSASF
HLA-A*29:02; [6]
  Kd: 25.7 nM
HLA-A*30:02; [6]
  Kd: 4340 nM
HLA-A*24:02 [2]; [6]
  Kd: 215 nM
HLA-A*01:01; [6]
  Kd: ≥ 41800 nM
HLA-A*23:01; [6]
  Kd: 88.7 nM
HLA-A*26:01 [3]; [6]
  Kd: 7410 nM

## EGCPKPHRL
HLA-A*29:02; [7]
  Kd: ≥ 43700 nM
HLA-A*30:02; [7]
  Kd: 12400 nM
HLA-A*24:02 [2]; [7]
  Kd: ≥ 46800 nM
HLA-A*01:01; [7]
  Kd: 13900 nM
HLA-A*23:01; [7]
  Kd: ≥ 77700 nM
HLA-A*26:01 [3]; [7]
  Kd: ≥ 77900 nM

## EKEFLRYLL
HLA-A*24:02 [1]; source organism: Vaccinia virus
  IC50: ≥ 116000 nM

## EKSAAIDGEY
HLA-A*30:02; [8]
  Kd: 49.3 nM
HLA-A*01:01; [8]
  Kd: 2420 nM
HLA-A*26:01 [3]; [8]
  Kd: 2040 nM

## ESRPFDLIKK
HLA-A*29:02; [9]
  Kd: ≥ 71400 nM
HLA-A*33:01
  Kd: 1000 nM
HLA-A*31:01
  Kd: 257 nM
HLA-A*11:01
  Kd: 74.2 nM
HLA-A*68:01
  Kd: 2.14 nM
HLA-A*03:01
  Kd: 236 nM

## EYTYPDSLE
HLA-A*24:02 [1]; [10]
  IC50: ≥ 190000 nM

## FILTAILFF
HLA-B*15:01; [9]
  Kd: 181 nM

## FVLALLAFF
HLA-A*26:01 [4]; source organism: West Nile virus
  Kd: ≥ 20000 nM

## GMEAQFLYLY
HLA-A*29:02; [6]
  Kd: 28.7 nM
HLA-A*30:02; [6]
  Kd: 147 nM
HLA-A*24:02 [2]; [6]
  Kd: ≥ 57400 nM
HLA-A*01:01; [6]
  Kd: 181 nM
HLA-A*23:01; [6]
  Kd: ≥ 46400 nM
HLA-A*26:01 [3]; [6]
  Kd: 12300 nM

## GYQPYRVVVL
HLA-A*29:02; [6]
  Kd: 1230 nM
HLA-A*30:02; [6]
  Kd: ≥ 78900 nM
HLA-A*24:02 [2]; [6]
  Kd: 201 nM
HLA-A*01:01; [6]
  Kd: ≥ 70400 nM
HLA-A*23:01; [6]
  Kd: 53.4 nM
HLA-A*26:01 [3]; [6]
  Kd: ≥ 69700 nM

## HISRQRLTKY
HLA-A*29:02; [6]
  Kd: 1020 nM
HLA-A*30:02; [6]
  Kd: 581 nM
HLA-A*24:02 [2]; [6]
  Kd: ≥ 70300 nM
HLA-A*01:01; [6]
  Kd: 12100 nM
HLA-A*23:01; [6]
  Kd: ≥ 70000 nM
HLA-A*26:01 [3]; [6]
  Kd: 1160 nM

## HTKKEMRSF
HLA-A*26:01 [4]; source organism: Bacillus cereus NVH0597-99
  Kd: 15 nM

## HWVPTSRTTW
HLA-A*24:02 [2]; [11]
  Kd: 603 nM
HLA-A*23:01; [11]
  Kd: 734 nM

## IAWIPYFGP
HLA-A*02:01
  IC50: 26900 nM
HLA-A*24:02 [1]; [5]
  IC50: 55800 nM

## IEAGRTLRVL
HLA-B*40:01; [11]
  Kd: 170 nM

## IENSTANVSL
HLA-B*40:01; source organism: Dengue virus 3 Martinique/1243/1999
  Kd: 6.06 nM

## IMILKLLTDF
HLA-B*15:01; source organism: Dengue virus 1 Singapore/S275/1990
  Kd: 12.4 nM

## ISHRPVVLT
HLA-A*24:02 [1]; source organism: Variola virus
  IC50: 1370 nM

## ISKIPGGNMY
HLA-A*30:02; [8]
  Kd: 15.4 nM
HLA-B*15:01; [8]
  Kd: 137 nM
HLA-A*01:01; [8]
  Kd: ≥ 27800 nM

## IVNAQPKCN
HLA-A*24:02 [1]; [10]
  IC50: 8880 nM

## KQTGSASSM
HLA-B*15:01; [11]
  Kd: 10.8 nM

## KSKKYEGPF
HLA-B*15:01; [9]
  Kd: 1.86 nM

## KVVQPENLEY
HLA-B*15:01; source organism: Dengue virus 2 16681-PDK53
  Kd: 30 nM

## KWADNNCYL
HLA-A*29:02; [6]
  Kd: ≥ 83300 nM
HLA-A*30:02; [6]
  Kd: ≥ 78900 nM
HLA-A*24:02 [2]; [6]
  Kd: 4920 nM
HLA-A*01:01; [6]
  Kd: ≥ 78100 nM
HLA-A*23:01; [6]
  Kd: 3410 nM
HLA-A*26:01 [3]; [6]
  Kd: ≥ 77900 nM

## LAESVKMHM
HLA-B*15:01; [9]
  Kd: 963 nM

## LAKKTLAPF
HLA-B*15:01; [9]
  Kd: 2.13 nM

## LANTNFFVF
HLA-B*15:01; [9]
  Kd: 17 nM

## LDHVNTLHF
HLA-A*29:02; [12]
  Kd: ≥ 63800 nM
HLA-A*30:02; [12]
  Kd: ≥ 46500 nM
HLA-A*24:02 [2]; [12]
  Kd: 10500 nM
HLA-A*01:01; [12]
  Kd: 19500 nM
HLA-A*23:01; [12]
  Kd: 5070 nM
HLA-A*26:01 [3]; [12]
  Kd: ≥ 77900 nM

## LEENVEVEI
HLA-B*40:01; [11]
  Kd: 10.9 nM

## LEIGKLPQHL
HLA-B*40:01; [8]
  Kd: 145 nM

## LGYCMIRWL
HLA-A*24:02 [1]; [9]
  IC50: ≥ 78900 nM

## LLSSTRVPNY
HLA-A*30:02; [13]
  Kd: 2170 nM
HLA-A*01:01; [13]
  Kd: 2260 nM

## LSIPHDLMEF
HLA-B*15:01; [13]
  Kd: 5.99 nM
HLA-A*01:01; [13]
  Kd: ≥ 36200 nM

## LWEGSPGKFW
HLA-A*23:01; [8]
  Kd: 2250 nM

## LWEKLCYLI
HLA-A*29:02; [14]
  Kd: 4440 nM
HLA-A*24:02 [2]; [14]
  Kd: 2880 nM
HLA-A*23:01; [14]
  Kd: 265 nM

## LYNSTFFSTF
HLA-A*29:02; [6]
  Kd: 622 nM
HLA-A*30:02; [6]
  Kd: 1160 nM
HLA-A*24:02 [2]; [6]
  Kd: 0.635 nM
HLA-A*01:01; [6]
  Kd: 10300 nM
HLA-A*23:01; [6]
  Kd: 0.965 nM
HLA-A*26:01 [3]; [6]
  Kd: 834 nM

## MCPFLFLAV
HLA-A*29:02; [15]
  Kd: 1690 nM
HLA-A*30:02; [15]
  Kd: ≥ 31200 nM
HLA-A*24:02 [2]; [15]
  Kd: ≥ 77500 nM
HLA-A*01:01; [15]
  Kd: 492 nM
HLA-A*23:01; [15]
  Kd: ≥ 51100 nM
HLA-A*26:01 [3]; [15]
  Kd: ≥ 77900 nM
